Reference: article PMC6319605 (Nature microbiology, 2018)

Target: Ubiquitin (Ub-propargylamide activity-based probe) (UniProt P0CG48 1-76, C-terminal propargylamide (Ub-PA), covalently linked to ChlaDUB1)
Assay: crystal structure

B1: Chlamydia trachomatis ChlaDUB1 (130-401) (enzyme)
chain: PVKTQEDLLPLVPEQVFVEMYEDMARRQTIEALVPAWDSDIIFKCLCYFHTLYPGLIPLETFPPATIFNFKQKIISILEDKKAVLRGEPIKGPLPICCSKENYRRHLQRTTLLPVFMWYHPTPKTLSDTMQTMKQLAIKGSVGASHWLLVIVDIQARRLVYFDSLYNYVMPPENMKKELQSFAQQLDQVYPAYDSKKFSVKIAAKEVIQRGSGSSCGAWCCQFLHWYLKDPLTDALNDLPVDSVERHENLASFVQACEAAVQDLPELSWPEA
modifications: covalently linked to one Ub molecule through the Ub-propargylamide probe (in the enzymatic S1 site)
binding result: binds
